{"source": "paper PMC11178655", "about": "“Dosimetry and pharmacokinetics of [^177Lu]Lu-satoreotide tetraxetan in patients with progressive neuroendocrine tumours” (European Journal of Nuclear Medicine and Molecular Imaging, 2024)", "key": {"[1]": {"assay": "Urinary excretion of radioactivity within 48 h (gamma counter)", "assay_type": "in vivo, human", "conditions": "first treatment cycle; for dose excreted: human, urine, iv, total radioactivity, read-out: Cumulative urinary excretion within 48 h", "method": "To generate pharmacokinetic data, blood samples (2 mL) were taken at the stop of infusion (0 min) and 5, 30, and 60 min, 4 h, and 1, 2, 3, and 6 days after the end of each [^177Lu]Lu-satoreotide tetraxetan administration. Urine samples were collected over three intervals within 48 h (0–6 h, 6–24 h, and 24–48 h in part A; 0–4 h, 4–24 h, and 24–48 h in part B) following the first treatment cycle of [^177Lu]Lu-satoreotide tetraxetan. Total activity concentrations in whole blood and urine were determined locally, using a gamma counter calibrated for lutetium-177. In two selected study centres, additional blood samples (2 mL) were collected at 1 min, 4 h, and 1, 2, 3, and 6 days after each [^177Lu]Lu-satoreotide tetraxetan administration to evaluate potential radioactive metabolites in plasma."}, "[2]": {"system": "patients with progressive, SSTR-positive NETs", "assay": "Model-based organ dosimetry, OLINDA/EXM version 1.0 (part B, first cycle)", "assay_type": "in vivo, human", "conditions": "OLINDA/EXM 1.0, part B, median", "method": "Patient-specific dosimetry calculations were performed after each treatment cycle in both parts A and B, using the absorbed dose calculation features of the NUKDOS software for image-based dosimetry calculations. The NUKDOS software was chosen as it allowed for an integral approach to organ dosimetry (including image quantification, time-activity curve-fitting and dosimetry calculation). For the bone marrow, both image-based and blood-based calculations were performed in part A [28, 29]. In part B, only image-based bone marrow dosimetry was performed. Organ Level INternal Dose Assessment/EXponential Modelling (OLINDA/EXM) version 1.0 software, the most widely used version at the time of the study, was used to perform model-based dosimetry calculations, which were only performed after the first [^177Lu]Lu-satoreotide tetraxetan cycle for patients in part B. To generate organ-specific absorbed doses, TIACs were used as input data. Full details on OLINDA/EXM software settings and organ-specific TIAC calculation methods are provided in the Supplementary Information.\nPatient-specific dosimetry calculations were performed according to European Association of Nuclear Medicine Dosimetry Guidance after each treatment cycle in both parts A and B, using the absorbed dose calculation features of the NUKDOS software (i.e., integration of the time-activity curves, calculation of the absorbed dose). Model-based dosimetry calculations were only performed after the first [^177Lu]Lu-satoreotide tetraxetan cycle and for patients in part B. To generate organ-specific absorbed doses, TIACs were used as input data in the Organ Level INternal Dose Assessment/EXponential Modelling (OLINDA/EXM) software version 1.0, which was granted Food and Drug Administration 510(k) clearance in June 2004. The following settings were applied: ^177Lu isotope, no bladder voiding model, adult male or female phantom. As the OLINDA/EXM software makes no distinction between the right and left kidneys, their TIACs were summed. In case biokinetic data were available for one kidney only, the kidney TIAC value was doubled. For the bone marrow, the patient-specific mass of the analysed vertebrae was used for upscaling image-based TIAC values according to the OLINDA/EXM phantom gender-specific masses (mBone marrow=1,120 g for males and 1,300 g for females):\nThe kidney, spleen, liver, and bone marrow TIACs were subtracted from the patient’s whole-body TIAC to obtain the TIAC of the remainder of the body."}}, "note": "Read-outs that look alike come from different tables or passages of the source. Where a SMILES comes first, the peptide text is derived from it. Bridges are numbered along the chain shown (N, C = ends). [ ]: non-standard residue; d: D form. The star is where a group is joined. DOTA = O=C(O)CN1CCN(CC(=O)O)CCN(CC(=O)*)CCN(CC(=O)O)CC1; dPhe(4-NHCONH2) = NC(=O)Nc1ccc(C[C@@H](N)C(=O)O)cc1; Dihydroorotyl(S) = O=C1C[C@@H](C(=O)*)NC(=O)N1; Phe(4-Cl) = N[C@@H](Cc1ccc(Cl)cc1)C(=O)O; Phe(4-NH2) = Nc1ccc(C[C@H](N)C(=O)O)cc1", "data": [{"smiles": "C[C@@H](O)[C@@H]1NC(=O)[C@H](CCCCN)NC(=O)[C@@H](Cc2ccc(NC(N)=O)cc2)NC(=O)[C@H](Cc2ccc(NC(=O)[C@@H]3CC(=O)NC(=O)N3)cc2)NC(=O)[C@H](NC(=O)[C@H](Cc2ccc(Cl)cc2)NC(=O)CN2CCN(CC(=O)O)CCN(CC(=O)O)CCN(CC(=O)O)CC2)CSSC[C@@H](C(=O)N[C@H](Cc2ccc(O)cc2)C(N)=O)NC1=O", "note": "[[^177Lu]Lu-satoreotide tetraxetan, metal not drawn] ({DOTA}-[Phe(4-Cl)][dC][Phe(4-NH2)](Dihydroorotyl(S))[dPhe(4-NHCONH2)]KTC[dY]-NH2; disulfide 2-7 (inferred); C-terminus assumed)", "values": [{"measurement": "Cumulative urinary excretion within 48 h", "setting": "[1]; patients treated with 4.5 GBq", "result": "57–66%"}, {"measurement": "Radioactivity excreted via urine within 48 hours", "setting": "[1]; patients treated with 4.5 GBq, range of medians across groups", "result": "2.6–3.0 GBq"}, {"measurement": "Radioactivity excreted via urine within 48 hours", "setting": "[1]; patients treated with 6 GBq, median", "result": 3.4, "unit": "GBq"}, {"measurement": "dose excreted", "setting": "[1]; patients treated with 4.5 GBq", "result": "57 to 66", "unit": "%"}, {"measurement": "dose excreted", "setting": "[1]; patients treated with 6 GBq", "result": "~57", "unit": "%"}, {"measurement": "Calculated absorbed dose for 3 cycles of 4.5 GBq each, Red marrow", "setting": "[2]; N = 18", "result": 1.47, "unit": "Gy"}, {"measurement": "Calculated absorbed dose for 3 cycles of 4.5 GBq each, Spleen", "setting": "[2]; N = 18", "result": 8.78, "unit": "Gy"}, {"measurement": "Calculated absorbed dose for 3 cycles of 4.5 GBq each, Adrenals", "setting": "[2]; N = 24", "result": 1.03, "unit": "Gy"}, {"measurement": "Calculated absorbed dose for 3 cycles of 4.5 GBq each, Brain", "setting": "[2]; N = 24", "result": 0.96, "unit": "Gy"}, {"measurement": "Calculated absorbed dose for 3 cycles of 4.5 GBq each, Breasts", "setting": "[2]; N = 24", "result": 0.95, "unit": "Gy"}, {"measurement": "Calculated absorbed dose for 3 cycles of 4.5 GBq each, Gallbladder wall", "setting": "[2]; N = 24", "result": 1.02, "unit": "Gy"}, {"measurement": "Calculated absorbed dose for 3 cycles of 4.5 GBq each, Heart wall", "setting": "[2]; N = 24", "result": 0.99, "unit": "Gy"}, {"measurement": "Calculated absorbed dose for 3 cycles of 4.5 GBq each, Kidneys", "setting": "[2]; N = 24", "result": 14.18, "unit": "Gy"}, {"measurement": "Calculated absorbed dose for 3 cycles of 4.5 GBq each, Lungs", "setting": "[2]; N = 24", "result": 0.98, "unit": "Gy"}, {"measurement": "Calculated absorbed dose for 3 cycles of 4.5 GBq each, Muscle", "setting": "[2]; N = 24", "result": 0.97, "unit": "Gy"}, {"measurement": "Calculated absorbed dose for 3 cycles of 4.5 GBq each, Osteogenic cells", "setting": "[2]; N = 24", "result": 3.96, "unit": "Gy"}, {"measurement": "Calculated absorbed dose for 3 cycles of 4.5 GBq each, Ovaries", "setting": "[2]; N = 24", "result": 1.00, "unit": "Gy"}, {"measurement": "Calculated absorbed dose for 3 cycles of 4.5 GBq each, Pancreas", "setting": "[2]; N = 24", "result": 1.05, "unit": "Gy"}, {"measurement": "Calculated absorbed dose for 3 cycles of 4.5 GBq each, Skin", "setting": "[2]; N = 24", "result": 0.93, "unit": "Gy"}, {"measurement": "Calculated absorbed dose for 3 cycles of 4.5 GBq each, Small intestine", "setting": "[2]; N = 24", "result": 1.00, "unit": "Gy"}, {"measurement": "Calculated absorbed dose for 3 cycles of 4.5 GBq each, Stomach wall", "setting": "[2]; N = 24", "result": 1.01, "unit": "Gy"}, {"measurement": "Calculated absorbed dose for 3 cycles of 4.5 GBq each, Thymus", "setting": "[2]; N = 24", "result": 0.98, "unit": "Gy"}, {"measurement": "Calculated absorbed dose for 3 cycles of 4.5 GBq each, Thyroid", "setting": "[2]; N = 24", "result": 0.96, "unit": "Gy"}, {"measurement": "Calculated absorbed dose for 3 cycles of 4.5 GBq each, Total body", "setting": "[2]; N = 24", "result": 1.08, "unit": "Gy"}, {"measurement": "Calculated absorbed dose for 3 cycles of 4.5 GBq each, Liver", "setting": "[2]; N = 24, may be an underestimation", "result": 1.07, "unit": "Gy"}, {"measurement": "Calculated absorbed dose for 3 cycles of 4.5 GBq each, Uterus", "setting": "[2]; female patients N = 11", "result": 1.13, "unit": "Gy"}, {"measurement": "Calculated absorbed dose for 3 cycles of 4.5 GBq each, Testes", "setting": "[2]; male patients N = 13", "result": 0.72, "unit": "Gy"}, {"measurement": "Calculated absorbed dose for 3 cycles of 4.5 GBq each, LLI wall", "setting": "[2]; lower large intestine, N = 24", "result": 1.00, "unit": "Gy"}, {"measurement": "Calculated absorbed dose for 3 cycles of 4.5 GBq each, ULI wall", "setting": "[2]; upper large intestine, N = 24", "result": 1.01, "unit": "Gy"}, {"measurement": "Calculated absorbed dose for 3 cycles of 4.5 GBq each, UB wall", "setting": "[2]; urinary bladder, N = 24", "result": 0.99, "unit": "Gy"}]}]}
